Positions count from the first letter of the chain named. “And” between values parts separate entries of the source, which are not always exact repeats. Equal entries are not always repeated. Values belong to the molecule of their own block, whether it stands above or below them.
Assays:
[1] = molecular target: human EGFRvIII protein, full length, on transfected cells (human) (UniProt P00533); assay: FACS, 293F-hEGFRvIII 1F3 cells
[2] = molecular target: human EGFRvIII protein, full length, on transfected cells (human) (UniProt P00533); assay: FACS, 293F-hEGFRvIII 1C10 cells
[3] = molecular target: human EGFRvIII protein, full length, on transfected cells (human) (UniProt P00533); assay: FACS, 293F-hEGFRvIII 1D11 cells
[4] = molecular target: human EGFRvIII protein, full length, on transfected cells (human) (UniProt P00533); assay: FACS, U87MG-hEGFRvIII 1B3 cells
[5] = molecular target: human EGFRvIII protein, full length, on transfected cells (human) (UniProt P00533); assay: FACS, U87MG-hEGFRvIII 1D1 cells
[6] = molecular target: human EGFRvIII protein, full length, on transfected cells (human) (UniProt P00533); assay: FACS, U87MG-hEGFRvIII 1F9 cells
[7] = molecular target: human EGFRvIII protein, full length, on transfected cells (human) (UniProt P00533); assay: FACS, U87MG-hEGFRvIII 2C6 cells
[8] = molecular target: human EGFRvIII protein, full length, on transfected cells (human) (UniProt P00533); assay: FACS, U87MG-hEGFRvIII 2G2 cells
[9] = molecular target: human EGFRvIII protein, full length, on transfected cells (human) (UniProt P00533); assay: FACS, CHO-K1-hEGFRvIII 1E3 cells
[10] = molecular target: human EGFRvIII protein, full length, on transfected cells (human) (UniProt P00533); assay: FACS, CHO-K1-hEGFRvIII 1G10 cells
[11] = molecular target: human EGFRvIII protein, full length, on transfected cells (human) (UniProt P00533); assay: FACS, CHO-K1-hEGFRvIII 2D11 cells
pep05 = molecular target: T1, pep05 (cysteine pairing not given here); assay: peptide dot matrix ELISA
T1 peptide: KGNYVVTDHGSCVRACK(Biotin)

pep14 = molecular target: T2, pep14 (cysteine pairing not given here); assay: peptide dot matrix ELISA
T2 peptide: GSCVRACGADSYEMEEK(Biotin)

pep15 = molecular target: T3, pep15 (cysteine pairing not given here); assay: peptide dot matrix ELISA
T3 peptide: SCVRACGADSYEMEEDK(Biotin)

pep19 = molecular target: T4, pep19; assay: peptide dot matrix ELISA
T4 sequence (peptide, C-terminal K(Biotin)): ACGADSYEMEEDGVRKK

[12] = molecular target: T5, human EGFRvIII-hFc protein (human, UniProt P00533 25-645); assay: ELISA, EGFRvIII-hFc coated
T5 construct: extracellular domain; also called immunogen A; hFc-tagged EGFRvIII protein; not shown: human IgG Fc fragment (hFc) of the pCpC vector
Method: The purified immunogen A (EGFRvIII-hFc) obtained in example 1 (for the preparation method, see step (I) in example 1) is diluted with PBS to a final concentration of 1.0 μg/mL, and then added to a 96-well ELISA plate at 100 μl/well. The plate is sealed with a plastic film and incubated at 4° C. overnight. The next day, the plate is washed twice with a plate washing solution [PBS+0.01% (v/v) Tween20], and added with a blocking solution [PBS+0.01% (v/v) Tween20+1% (w/w) BSA] for blocking 2 hours at room temperature. […] The plate is incubated for 2 hours at 37° C., and then washed 3 times with the plate washing solution [PBS+0.01% (v/v) Tween20]. The plate is added with an HRP (horseradish peroxidase) labeled secondary antibody (purchased from Sigma), incubated at 37° C. for 2 hours, and then washed 3 times with the plate washing solution [PBS+0.01% (v/v) Tween20]. The plate is added with 100 μl of TMB substrate/well, incubated for 30 minutes at room temperature, and then added with 100 μl of stopping solution (1.0N HCl)/well. A450 nm value is read using an ELISA plate reader (SpectraMax 384plus, purchased from Molecular Device), and the results are shown in FIG. 11 and table 19.

[13] = molecular target: T5, human EGFRvIII-hFc protein; assay: ELISA, EGFRvIII-hFc coated; remark: listed apart in the source
[14] = molecular target: T6, human EGFRvIII protein on the cell surface (human, UniProt P00533 25-1210); assay: FACS on U87MG-EGFRvIII cells
T6 construct: whole, on cells; the cell line is named under assay; also called hEGFRvIII; U87MG-hEGFRvIII
In short: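 U87MG-EGFRvIII, A431 and primary human hepatocytes (2×10⁶ cells/mL, goat-serum blocked) were incubated with antibody on ice for 2 h, then with an Alexa 488 secondary (1:1000) for 1 h and fixed in 4% paraformaldehyde. Mean fluorescence intensity was read by flow cytometry, and EC50 was derived by curve fitting.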

[15] = molecular target: T6, human EGFRvIII protein on the cell …; assay: FACS on U87MG-hEGFRvIII cells
[16] = molecular target: T7, human wild-type EGFR protein on the cell surface (human, UniProt P00533 25-1210); assay: FACS on A431 cells; A431 cells (large amount of wild-type EGFR on the surface)
T7 construct: whole, on cells; Endogenous on A431, HEB, U87MG cells and normal human primary hepatocytes; transfected on CHOk1-EGFR cells; The cell is named under assay; also called A431; HEB
Method: The cells are washed twice with the HBSS buffer and are counted, and then the cells are diluted with the HBSS buffer to 2×10⁶ cells/ml, added with 1% goat serum blocking solution, with the percentage being the mass percentage, and incubated on ice for 30 minutes, and then centrifugally washed twice with the HBSS buffer. The collected cells are suspended to 2×10⁶ cells/mL with an FACS buffer (HBSS+1% BSA, with the percentage being the mass percentage), added to a 96-well FACS reaction plate at 100 μL/well, then added with 100 μL/well of the purified EGFRvIII antibody (samples to be tested) obtained in example 2, and incubated on ice for 2 hours. The plate is centrifugally washed twice with the FACS buffer, added with 100 μL/well of a fluorescence (Alexa 488) labeled secondary antibody (purchased from Invitrogen), and then incubated on ice for 1 hour. The plate is centrifugally washed 3 times with the FACS buffer, added with 100 μL/well of a fixing solution [4% (v/v) paraformaldehyde] for suspending the cells, and centrifugally washed twice with the FACS buffer after 10 minutes. The cells are suspended in 100 μL of the FACS buffer, and the results are detected and analyzed by FACS (FACS Calibur, purchased from BD). Data analysis is performed by using the software (CellQuest) to obtain the mean fluorescence intensity (MFI) of the cells. Data is further analyzed by using the software (GraphPad Prism5) to perform data fitting and calculate EC50. […] A431 cells (human epidermal cell cancer cell lines) have a large amount of wild-type EGFR protein expressed on the surface thereof. […] U87MG cells (human glioma cell lines) have a small amount of wild-type EGFR protein expressed on the surface thereof, while HEB cells (human glioma cell lines) have a high level of wild-type EGFR protein expression on the surface thereof.

[17] = molecular target: human wild-type EGFR protein on the cell surface (human) (UniProt P00533); assay: FACS on A431 tumor cells
[18] = molecular target: human EGFRvIII-hFc protein (human) (UniProt P00533); assay: ELISA, EGFRvIII-hFc coated
[19] = molecular target: human EGFRvIII protein on the cell surface (human) (UniProt P00533); assay: FACS on U87MG-EGFRvIII cells
[20] = molecular target: human wild-type EGFR protein on the cell surface (human) (UniProt P00533); assay: FACS on normal human primary hepatocytes
[21] = molecular target: human wild-type EGFR protein on the cell surface (human) (UniProt P00533); assay: FACS, MFI on A431 cells over MFI on normal primary hepatocytes
[22] = molecular target: EGFR-his (purchased from Sino Biological) (UniProt P00533); assay: BLI (OctetRED), antibody on anti-human Fc (AHC) biosensor, EGFR-his in solution
[23] = molecular target: EGFRvIII-his (purchased from Sino Biological) (UniProt P00533); assay: BLI (OctetRED), antibody on anti-human Fc (AHC) biosensor, EGFRvIII-his in solution

B1: Chimeric antibody 63A10 (antibody, V domains shown)
VH: QVQLQQSGAELARPGASVKMSCKASGYTFISFTMHWVKQRPGQGLEWIGYINPNSGYTKYNQKFKDKATLTAGQSSSTAYMQLSSLTSEDSAVYYCTRGGGRGFAYWGQGTLVTVSA
VL: DILMTQSPSSMSVSLGDTVTITCHASQDINSNIGWLQQKPGKSFKALIYHGTNLEDGVPSRFSGSGSGADYSLTISSLESEDFADYYCVQYAQFPFTFGSGTKLEIK
ELISA signal (pep05): 0.15 and 0.17
ELISA signal (pep14): 0.08 and 0.23
ELISA signal (pep15): 0.14 and 0.11
ELISA signal (pep19): 0.11 and 0.15

B2: Chimeric antibody 63A10 (antibody, human IgG1, V domains shown)
VH: B1 VH
VL: B1 VL
notes: also called c63A10A7; chimeric antibody c63A10A7
OD450 nm at 0.0001 nM antibody [12]: 0.07 OD450
OD450 nm at 0.001 nM antibody [12]: 0.11 OD450
OD450 nm at 0.01 nM antibody [12]: 0.37 OD450
OD450 nm at 0.1 nM antibody [12]: 1.05 OD450
OD450 nm at 1 nM antibody [12]: 3.33 OD450
OD450 nm at 10 nM antibody [12]: 3.55 OD450
OD450 nm at 100 nM antibody [12]: 3.55 OD450
EC50 [13]: 0.22 nM
Maximum OD450 value [13]: 3.6 OD450
EC50 [14]: 3.8 nM
Maximum mean fluorescence intensity [14]: 11600 MFI
EC50 [15]: 2.2 nM
EC50 [16]: 696 nM

The next lines start with the values.

cell mean fluorescence intensity [1]: 4.1
cell mean fluorescence intensity [2]: 4.3
cell mean fluorescence intensity [3]: 3.6
cell mean fluorescence intensity [4]: 2.3
cell mean fluorescence intensity [5]: 3
cell mean fluorescence intensity [6]: 1.7
cell mean fluorescence intensity [7]: 1.8
cell mean fluorescence intensity [8]: 1.8
cell mean fluorescence intensity [9]: 2.4
cell mean fluorescence intensity [10]: 2.4
cell mean fluorescence intensity [11]: 1.8
Molecule: IgG subtype control (antibody)

MFI [17]: 9780 MFI
EC50 [18]: 0.49 nM
Maximum OD450 value [18]: 3.41 OD450
EC50 [19]: 4.93 nM
Maximum mean fluorescence intensity [19]: 18300 MFI
MFI [20]: 277 MFI
Selective window (MFI A431/Hepatocytes) [21]: 35.5 fold
Kd [22]: 205 nM
koff [22]: 0.00353 s⁻¹
kon [22]: 17200 M⁻¹ s⁻¹
Kd [23]: 1.71 nM
koff [23]: 0.000141 s⁻¹
kon [23]: 82800 M⁻¹ s⁻¹
B3: Humanized antibody h75G7C6-1 (antibody, human IgG1, V domains shown)
VH: EVQLVQSGAEVKKPGASVKVSCKASGYTFTDYNMDWVKQAPGQGLEWIGDINPNNADTIYNQKFKGRVTLTVDKSTSTVYMELSSLRSEDTAVYYCARGDYDGYYPVYYAMDYWGQGTTVTVSS
VL: EIVLTQSPATLSLSPGERATLSCRASSSVSSSYLHWYQQKPGQAPRLLIYSTSNLAAGIPARFSGSGSGTDFTLTISSLEPEDFAVYYCQQYSGYPLTFGGGTKVEIK

MFI [17]: 11800 MFI
EC50 [18]: 0.38 nM
Maximum OD450 value [18]: 3.38 OD450
EC50 [19]: 5.67 nM
Maximum mean fluorescence intensity [19]: 18300 MFI
MFI [20]: 250 MFI
Selective window (MFI A431/Hepatocytes) [21]: 47 fold
Kd [22]: 200 nM
koff [22]: 0.00405 s⁻¹
kon [22]: 20300 M⁻¹ s⁻¹
Kd [23]: 1.54 nM
koff [23]: 0.00014 s⁻¹
kon [23]: 90600 M⁻¹ s⁻¹
B4: Humanized antibody h75G7C6-2 (antibody, human IgG1, V domains shown)
VH: B3 VH
VL: B3 VL with I2N, Y50F, F72Y

— patent US20210032351A1 (XDCEXPLORER SHANGHAI, published 2021)
